Experimental data: article PMC2644375

Experiments:
Cul1 (CFP)–Rbx1 (human) = Cul1 (CFP)–Rbx1 (human) (UniProt Q13616); experiment: FRET or BRET
[1] = molecular target: Nedd8 Cul1 (CFP)–Rbx1 (quantitatively neddylated) (UniProt Q13616); experiment: FRET or BRET
[2] = molecular target: SCF^Skp2 (unmodified) (human), Q13616

Molecule: LG-labeled Cdc34 (from UniProt P49427 1-236) (enzyme)
- Kd (Cul1 (CFP)–Rbx1 (human)): 82 nM
- fold lowering of Kd against unmodified Cul1 (CFP)–Rbx1 [1]: 3 fold

B1: Cdc34, P49427 1-236 (enzyme)
chain: MARPLVPSSQKALLLELKGLQEEPVEGFRVTLVDEGDLYNWEVAIFGPPNTYYEGGYFKARLKFPIDYPYSPPAFRFLTKMWHPNIYETGDVCISILHPPVDDPQSGELPSERWNPTQNVRTILLSVISLLNEPNTFSPANVDASVMYRKWKESKGKDREYTDIIRKQVLGTKVDAERDGVKVPTTLAEYCVKTKAPAPDEGSDLFYDDYYEDGEVEEEADSCFGDDEDDSGTEES
- Km for Cdc34 in ubiquitination of p27-Cdk2-CycE (multi-turnover, varying Cdc34) [2]: 6.1 µM
